Reference: the RNAGym collection of RNA variant scans (doi:10.1021/acssynbio.7b00057)

B1: Pistol ribozyme (parent)
chain: GGGUCGUUGUUCCAUAAUCGCGUGGAUAUGGCACGCAAGUUUCUACCGGGCACCGUAAAUGUCCGACUGGAGCCGUUCGGGCGGCUAUAAACAGACCUCAGGCCCGAAGCGUGGCGGCACCUGCCGCCGGUGGUAAAAAAGAUCGGAAGAGCACACGUCU

Variants of: B1
Test: aptazyme ON/OFF ratio, guanine; higher = stronger switching; co-transcriptional cleavage with and without guanine

Question: For U7A U8G G9A C13A, which “aptazyme ON/OFF ratio” value is on record?
Answer: 1.39

Question: For U7A U8G G9A U10C C12A C13A, which “aptazyme ON/OFF ratio” value is on record?
Answer: 1.05

Question: Which “aptazyme ON/OFF ratio” value does the source give for U7A U8G G9A U10C C12A C13G here?
Answer: 1.14

Question: Which “aptazyme ON/OFF ratio” value does the source give for U7A U8G G9A U10C C12A C13U here?
Answer: 1.12

Question: Which “aptazyme ON/OFF ratio” value does the source give for U7A U8G G9A U11G C12A C13A here?
Answer: 1.16

Question: With U7A U8G G9A U11G C12A C13U as the variant, how does the “aptazyme ON/OFF ratio” value read?
Answer: 1.07

Question: Which “aptazyme ON/OFF ratio” value does the source give for U7A U8G G9A U11G C12A C13G here?
Answer: 1.39

Question: Which “aptazyme ON/OFF ratio” value does the source give for U7A U8G G9A U10A C12G C13G here?
Answer: 1.33

Question: For U7A U8G G9A U10A C12G C13A, which “aptazyme ON/OFF ratio” value is on record?
Answer: 1.52

Question: With U7A U8G G9A U10A C12G C13U as the variant, how does the “aptazyme ON/OFF ratio” value read?
Answer: 1.34

Question: With U7A U8G G9A U10A U11C C12A C13G as the variant, how does the “aptazyme ON/OFF ratio” value read?
Answer: 1.33

Question: For U7A U8G G9A U10A U11C C12A C13U, which “aptazyme ON/OFF ratio” value is on record?
Answer: 1.16

Question: Which “aptazyme ON/OFF ratio” value does the source give for U7A U8G G9A U10A U11C C12A C13A here?
Answer: 1.32

Question: For U7A U8G G9A U10C C12G C13G, which “aptazyme ON/OFF ratio” value is on record?
Answer: 1.38

Question: With U7A U8G G9A U10C C12G C13U as the variant, how does the “aptazyme ON/OFF ratio” value read?
Answer: 1.17

Question: Which “aptazyme ON/OFF ratio” value does the source give for U7A U8G G9A U10C C12G C13A here?
Answer: 1.19

Question: Which “aptazyme ON/OFF ratio” value does the source give for U7A U8G G9A U11C C13A here?
Answer: 1.12

Question: Which “aptazyme ON/OFF ratio” value does the source give for U7A U8G G9A U11C C13U here?
Answer: 1.2

Question: Which “aptazyme ON/OFF ratio” value does the source give for U7A U8G G9A U11C C13G here?
Answer: 1.09

Question: For U7A U8G G9C U10A, which “aptazyme ON/OFF ratio” value is on record?
Answer: 1.24

Question: With U7A U8G G9A U10C U11C C12G C13G as the variant, how does the “aptazyme ON/OFF ratio” value read?
Answer: 1.09

Question: For U7A U8G G9A U10C U11C C12G C13A, which “aptazyme ON/OFF ratio” value is on record?
Answer: 1.11

Question: With U7A U8G G9A U10C U11C C12G C13U as the variant, how does the “aptazyme ON/OFF ratio” value read?
Answer: 1.04

Question: Which “aptazyme ON/OFF ratio” value does the source give for U7A U8G G9A U10C U11C C12A C13G here?
Answer: 1.22

Question: Which “aptazyme ON/OFF ratio” value does the source give for U7A U8G G9A U10C U11C C12A C13A here?
Answer: 1.09

Question: For U7A U8G G9A U10C U11C C12A C13U, which “aptazyme ON/OFF ratio” value is on record?
Answer: 1.04

Question: Which “aptazyme ON/OFF ratio” value does the source give for U7A U8G G9A U10G C13G here?
Answer: 1.09

Question: With U7A U8G G9A U10G C13U as the variant, how does the “aptazyme ON/OFF ratio” value read?
Answer: 1.31

Question: With U7A U8G G9A U10G C13A as the variant, how does the “aptazyme ON/OFF ratio” value read?
Answer: 1.18

Question: With U7A U8G G9A U10C C13A as the variant, how does the “aptazyme ON/OFF ratio” value read?
Answer: 1.03

Question: With U7A U8G G9A U10C C13G as the variant, how does the “aptazyme ON/OFF ratio” value read?
Answer: 1.1

Question: For U7A U8G G9A U10C C13U, which “aptazyme ON/OFF ratio” value is on record?
Answer: 1.25

Question: For U7A U8G G9A U11G C12G, which “aptazyme ON/OFF ratio” value is on record?
Answer: 1.32

Question: For U7A U8G G9A U11G C12A, which “aptazyme ON/OFF ratio” value is on record?
Answer: 1.14

Question: For U7A U8G G9A U11G C12U, which “aptazyme ON/OFF ratio” value is on record?
Answer: 1.36

Question: Which “aptazyme ON/OFF ratio” value does the source give for U7A U8G C12U here?
Answer: 1.61

Question: With U7A U8G C12A as the variant, how does the “aptazyme ON/OFF ratio” value read?
Answer: 1.22

Question: With U7A U8G C12G as the variant, how does the “aptazyme ON/OFF ratio” value read?
Answer: 1.27

Question: For U7A U8G G9A U10C U11C C12U C13A, which “aptazyme ON/OFF ratio” value is on record?
Answer: 1.06

Question: For U7A U8G G9A U10C U11C C12U C13G, which “aptazyme ON/OFF ratio” value is on record?
Answer: 1.08

Question: With U7A U8G G9A U10C U11C C12U C13U as the variant, how does the “aptazyme ON/OFF ratio” value read?
Answer: 1.07

Question: For U7A U8G G9A U11A C12A C13A, which “aptazyme ON/OFF ratio” value is on record?
Answer: 1.39

Question: Which “aptazyme ON/OFF ratio” value does the source give for U7A U8G G9A U11A C12A C13G here?
Answer: 1.21

Question: For U7A U8G G9A U11A C12A C13U, which “aptazyme ON/OFF ratio” value is on record?
Answer: 1.16

Question: With U7A U8G G9C U10A C12A C13G as the variant, how does the “aptazyme ON/OFF ratio” value read?
Answer: 1.26

Question: With U7A U8G G9C U10A C12A C13A as the variant, how does the “aptazyme ON/OFF ratio” value read?
Answer: 1.25

Question: With U7A U8G G9C U10A C12A C13U as the variant, how does the “aptazyme ON/OFF ratio” value read?
Answer: 1.32

Question: With U7A U8G G9A U10G C12G as the variant, how does the “aptazyme ON/OFF ratio” value read?
Answer: 1.36

Question: For U7A U8G G9A U10G C12U, which “aptazyme ON/OFF ratio” value is on record?
Answer: 1.21

Question: With U7A U8G G9A U10G C12A as the variant, how does the “aptazyme ON/OFF ratio” value read?
Answer: 1.24

Question: With U7A U8G G9A U11A C13A as the variant, how does the “aptazyme ON/OFF ratio” value read?
Answer: 1.24

Question: With U7A U8G G9A U11A C13G as the variant, how does the “aptazyme ON/OFF ratio” value read?
Answer: 1.21

Question: For U7A U8G G9A U11A C13U, which “aptazyme ON/OFF ratio” value is on record?
Answer: 1.55

Question: For U7A U8G G9A U10A U11A C12U C13A, which “aptazyme ON/OFF ratio” value is on record?
Answer: 1.2

Question: Which “aptazyme ON/OFF ratio” value does the source give for U7A U8G G9A U10A U11A C12U C13G here?
Answer: 1.29

Question: For U7A U8G G9A U10A U11A C12U C13U, which “aptazyme ON/OFF ratio” value is on record?
Answer: 1.07

Question: Which “aptazyme ON/OFF ratio” value does the source give for U7A U8G G9C U10A C12U C13G here?
Answer: 1.21

Question: With U7A U8G G9C U10A C12U C13A as the variant, how does the “aptazyme ON/OFF ratio” value read?
Answer: 1.31

Question: Which “aptazyme ON/OFF ratio” value does the source give for U7A U8G G9C U10A C12U C13U here?
Answer: 1.11

Question: For U7A U8G G9A U10G U11G C12G C13G, which “aptazyme ON/OFF ratio” value is on record?
Answer: 1.68

Question: With U7A U8G G9A U10G U11G C12G C13U as the variant, how does the “aptazyme ON/OFF ratio” value read?
Answer: 1.53

Question: With U7A U8G G9A U10G U11G C12G C13A as the variant, how does the “aptazyme ON/OFF ratio” value read?
Answer: 0.971

Question: With U7A U8G G9A U10A U11G C12U C13G as the variant, how does the “aptazyme ON/OFF ratio” value read?
Answer: 1.52

Question: Which “aptazyme ON/OFF ratio” value does the source give for U7A U8G G9A U10A U11G C12U C13U here?
Answer: 1.33

Question: With U7A U8G G9A U10A U11G C12U C13A as the variant, how does the “aptazyme ON/OFF ratio” value read?
Answer: 1

Question: With U7A U8G G9A U10C U11A C12U C13A as the variant, how does the “aptazyme ON/OFF ratio” value read?
Answer: 1.11

Question: With U7A U8G G9A U10C U11A C12U C13G as the variant, how does the “aptazyme ON/OFF ratio” value read?
Answer: 1.06

Question: With U7A U8G G9A U10C U11A C12U C13U as the variant, how does the “aptazyme ON/OFF ratio” value read?
Answer: 1.1

Question: With U7A U8G G9A U11C C12U C13U as the variant, how does the “aptazyme ON/OFF ratio” value read?
Answer: 1.46

Question: Which “aptazyme ON/OFF ratio” value does the source give for U7A U8G G9A U11C C12U C13A here?
Answer: 1.07

Question: Which “aptazyme ON/OFF ratio” value does the source give for U7A U8G G9A U11C C12U C13G here?
Answer: 0.973

Question: For U7A U8G G9C U10A U11C C12U C13A, which “aptazyme ON/OFF ratio” value is on record?
Answer: 1.26

Question: With U7A U8G G9A U10C U11G C12A C13A as the variant, how does the “aptazyme ON/OFF ratio” value read?
Answer: 1.18

Question: With U7A U8G G9A U10C U11G C12A C13G as the variant, how does the “aptazyme ON/OFF ratio” value read?
Answer: 1.19

Question: Which “aptazyme ON/OFF ratio” value does the source give for U7A U8G G9A U10C U11G C12A C13U here?
Answer: 1.28

Question: Which “aptazyme ON/OFF ratio” value does the source give for U7A U8G G9A U10C U11G C12U here?
Answer: 1.26

Question: With U7A U8G G9A U10C U11G C12A as the variant, how does the “aptazyme ON/OFF ratio” value read?
Answer: 1.12

Question: For U7A U8G G9A U10C U11G C12G, which “aptazyme ON/OFF ratio” value is on record?
Answer: 1.33

Question: With U7A U8G G9A U10G U11G C12A C13U as the variant, how does the “aptazyme ON/OFF ratio” value read?
Answer: 1.5

Question: For U7A U8G G9A U10G U11G C12A C13G, which “aptazyme ON/OFF ratio” value is on record?
Answer: 1.34

Question: With U7A U8G G9A U10G U11G C12A C13A as the variant, how does the “aptazyme ON/OFF ratio” value read?
Answer: 1.65

Question: With U7A U8G G9A U11G C12G C13G as the variant, how does the “aptazyme ON/OFF ratio” value read?
Answer: 1.08

Question: With U7A U8G G9A U11G C12G C13A as the variant, how does the “aptazyme ON/OFF ratio” value read?
Answer: 1.1

Question: With U7A U8G G9A U11G C12G C13U as the variant, how does the “aptazyme ON/OFF ratio” value read?
Answer: 1.52
